Laboratory results taken from US20210063414A1, “METHODS FOR PREVENTING AND/OR TREATING BONE LOSS CONDITIONS BY MODULATING IRISIN” (Dana-Farber Cancer Institute, Inc., priority 2018, published 2021).

Key:
integrin α11/β1 = target: T1, integrin α11/β1 (Homo sapiens, UniProt P05556+Q9UKX5); test: FAK phosphorylation in HEK293T cells with forced expression of integrin α11/β1; assay type: cell-based
T1 construct: expressed in transfected cells; host or cells: HEK293T
Experimental: 100 nM irisin was incubated with 5 nM indicated his-tag integrins followed by immunoprecipitation using Ni-NTA agaroses. Precipitated integrins and co-precipitated irisin were analyzed by immunoblot analysis. […] HEK293T cells were seeded and incubated until 50% cell density. The cells were transfected with 0.1 μg plasmids of indicated integrins. After 48 hours, the cells were re-split to indicated dose of vitronectin-coated plates. Cells were incubated with culture medium for 3 hours. Cells were lysed to detect the indicated protein level using immunoblot analysis. FIG. 15C and FIG. 15D show the immunoblot data. Cells were treated and analyzed as FIG. 14B except using plasmids encoding integrin α5/β1 or integrin α11/β1 (FIG. 15C) integrin αV/β1(FIG. 15D).
HEK293T cells were set up for experiments at 1×10^5 cells per well in 6 well plate. On day 2, cells were transiently transfected with the indicated plasmids with FuGENE® 6 reagent (Roche Applied Science) according to the manufacturer's protocol. […]
Cells were harvested in RIPA buffer containing protease-inhibitor cocktail and phosphataseinhibitor cocktail. […] Protein levels were analyzed via western blot using indicated antibody. […] Protein levels were analyzed using western blot against indicated antibody.

MLO-Y4 cells = test: Integrin-like signaling (pFAK, pZyxin, pAKT, pCREB) in MLO-Y4 cells, immunoblot; assay type: cell-based
Experimental: Integrin heterodimer binds to its ligand. The interaction results in phosphorylation of FAK and Zyxin, followed by phosphorylation of AKT (at T308) and CREB. PM is plasma membrane. FIG. 2C and FIG. 2D show the immunoblots. MLO-Y4 cells were seeded and incubated until 60% cell density. The cells were incubated with serum free medium (FreeStyle™ 293 medium) for 4 hours and were treated for indicated time with 10 nM norepinephrine or irisin (FIG. 2C) or indicated concentrations of irisin for 10 minutes (FIG. 2D). Cells were lysed to detect the indicated protein level using immunoblot analysis.
Certain materials and methods were used to generate the results described herein. For example, the data shown in FIG. 1A resulted from MLO-Y4 (an osteocyte-like cell line) cells treated with the indicated concentration of irisin and hydrogen peroxide for 4 hours. Cells were stained with Hoechst 33342 (ThermoFisher Scientific, catalog number H3570) and Eth-D1 (ThermoFisher Scientific, catalog number E1169) and analyzed to determine the percentage of cell death using ImageJ. The data shown in FIG. 2D resulted from MLO-Y4 incubated in serum free medium (FreeStyle™ 293 expression medium, ThermoFisher Scientific, catalog number 12338018) for 4 hours followed by treatment of indicated concentrations of irisin for 10 minutes. Cells were lysed to detect the indicated protein level using immunoblot analysis (Cell Signaling Technology, catalog numbers 3283S, 3285S, 8467S, 3553S, 9198S, and 9104S; Abcam, catalog number ab49900-100ul). The data shown in FIG. 3 resulted from 3T3-F442A cells incubated in serum free medium for 4 hours followed by treatment of indicated concentrations of irisin for 10 minutes. Cells were lysed by RIPA buffer to detect the indicated protein level using immunoblot analysis. The data shown in FIG. 4 were generated from 100 nM flag-tagged irisin (Enzo life sciences, catalog number ADI-908-307-3010) incubated with 5 nM of the indicated 6 his-tag integrins (R & D Systems Inc., catalog numbers 7064-AB-025, 5668-A4-050, 5438-A9-050, 6357-AB-050, and 6579-AV-025) in the presence of RGDS peptide (R & D Systems Inc., catalog number 3498/10) or its control peptide (Enzo Life Sciences, catalog Number BML-P701-0005) followed by immunoprecipitation using 6 his-tag beads (ThermoFisher Scientific, catalog number R901-01). Co-precipitated irisin was analyzed by immunoblot analysis against flag tag (Sigma Aldrich, catalog number A8592). The data shown in FIGS. 5A and 5B were generated from MLO-Y4 cells treated and analyzed as in the experiments used to generate the data shown in FIG. 2D, except that pre-treatment of 100 nM RGDS (FIG. 5A) or echistatin (R & D Systems Inc., catalog number 3202/100U) (FIG. 5B) for 10 minutes was performed before irisin treatment. The data shown in FIGS. 6A and 6B were generated from MLO-Y4 cells incubated in serum free medium for 3 hours followed by treatment of indicated time of 10 nM irisin for 16 hours. RNAs were extracted from the cells and the sclerostin mRNA level was analyzed by qPCR (FIG. 6A) or treated and analyzed as in (FIG. 6A), except that pre-treatment of 10 μM RGDS, RGDyK (Selleck, catalog number S7844), or echistatin was performed for 10 minutes before irisin treatment. The data shown in FIGS. 7A and 7B were generated from 8 week-old mice injected with the indicated dose of irisin for 6 days. Tibias were collected and treated with collagenase to obtain mRNA from the osteocyte-enriched bones. Sclerostin mRNA level was analyzed by qPCR (FIG. 7A). Serum was collected to analyze the sclerostin protein level using ELISA kit (R&D Systems Inc., catalog number MSST00) (FIG. 7B). The data shown in FIG. 8 were generated from 8 week-old mice injected with the indicated dose of irisin for 6 days. Epididymal fats were collected, RNAs were extracted from the tissues, and mRNA levels of the indicated genes were analyzed by qPCR. […]

T1 sequence (Q9UKX5 23-1188): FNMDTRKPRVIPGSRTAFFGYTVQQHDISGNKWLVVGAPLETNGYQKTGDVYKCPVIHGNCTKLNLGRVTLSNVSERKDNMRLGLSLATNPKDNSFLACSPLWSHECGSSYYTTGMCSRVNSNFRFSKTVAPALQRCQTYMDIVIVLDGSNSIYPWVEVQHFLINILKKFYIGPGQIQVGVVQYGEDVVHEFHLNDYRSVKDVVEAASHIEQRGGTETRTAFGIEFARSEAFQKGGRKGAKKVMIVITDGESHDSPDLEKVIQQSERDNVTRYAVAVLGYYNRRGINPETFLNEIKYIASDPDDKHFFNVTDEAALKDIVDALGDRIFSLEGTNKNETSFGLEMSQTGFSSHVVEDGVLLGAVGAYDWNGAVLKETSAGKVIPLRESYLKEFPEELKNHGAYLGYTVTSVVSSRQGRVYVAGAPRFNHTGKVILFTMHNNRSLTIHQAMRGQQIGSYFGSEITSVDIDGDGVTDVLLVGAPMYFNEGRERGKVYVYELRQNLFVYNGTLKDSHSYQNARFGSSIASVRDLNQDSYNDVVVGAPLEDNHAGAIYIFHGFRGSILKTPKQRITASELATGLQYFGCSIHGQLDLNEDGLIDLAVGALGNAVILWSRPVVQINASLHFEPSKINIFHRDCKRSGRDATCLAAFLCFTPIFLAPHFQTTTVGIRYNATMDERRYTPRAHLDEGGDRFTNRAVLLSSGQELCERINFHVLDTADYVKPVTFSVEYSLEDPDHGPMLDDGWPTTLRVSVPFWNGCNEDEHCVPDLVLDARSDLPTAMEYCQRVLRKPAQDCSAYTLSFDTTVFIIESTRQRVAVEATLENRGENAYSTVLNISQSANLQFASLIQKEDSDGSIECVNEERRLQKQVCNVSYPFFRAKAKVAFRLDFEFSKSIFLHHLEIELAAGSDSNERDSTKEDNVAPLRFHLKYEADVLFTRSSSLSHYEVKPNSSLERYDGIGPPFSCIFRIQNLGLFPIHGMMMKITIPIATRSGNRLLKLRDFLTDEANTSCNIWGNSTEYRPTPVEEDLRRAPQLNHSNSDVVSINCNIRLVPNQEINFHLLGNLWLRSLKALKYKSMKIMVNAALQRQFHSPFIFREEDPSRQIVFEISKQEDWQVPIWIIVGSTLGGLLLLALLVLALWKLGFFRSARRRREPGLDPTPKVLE
T1 sequence (P05556 21-798): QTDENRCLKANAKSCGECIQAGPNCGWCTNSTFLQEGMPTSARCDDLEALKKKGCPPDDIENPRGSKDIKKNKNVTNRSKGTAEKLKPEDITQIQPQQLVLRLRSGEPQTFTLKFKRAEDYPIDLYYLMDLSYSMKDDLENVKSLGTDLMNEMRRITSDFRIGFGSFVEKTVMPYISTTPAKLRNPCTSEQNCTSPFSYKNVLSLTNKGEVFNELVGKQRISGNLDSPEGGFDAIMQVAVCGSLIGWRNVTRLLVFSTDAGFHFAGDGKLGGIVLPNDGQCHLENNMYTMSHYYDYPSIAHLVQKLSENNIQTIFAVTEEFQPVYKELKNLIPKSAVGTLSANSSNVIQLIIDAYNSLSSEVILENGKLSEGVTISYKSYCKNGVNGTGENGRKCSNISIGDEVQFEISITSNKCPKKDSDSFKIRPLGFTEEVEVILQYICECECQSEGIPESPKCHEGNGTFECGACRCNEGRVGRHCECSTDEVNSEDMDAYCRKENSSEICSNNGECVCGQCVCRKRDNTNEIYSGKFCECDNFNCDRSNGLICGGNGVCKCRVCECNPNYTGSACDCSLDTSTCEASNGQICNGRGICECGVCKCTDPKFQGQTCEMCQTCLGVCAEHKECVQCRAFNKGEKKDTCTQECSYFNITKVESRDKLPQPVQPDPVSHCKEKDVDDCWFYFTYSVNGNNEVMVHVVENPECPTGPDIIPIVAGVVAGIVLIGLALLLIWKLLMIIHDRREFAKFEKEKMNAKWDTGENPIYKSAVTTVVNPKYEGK

B1: irisin: secreted cleaved form of FNDC5; recombinant human/mouse irisin with C-terminal his tag produced in HEK293 cells (protein)
chain: DSPSAPVNVTVRHLKANSAVVSWDVLEDEVVIGFAISQQKKDVRMLRFIQEVNTTTRSCALWDLEEDTEYIVHVQAISIQGQSPASEPVLFKTPREAEKMASKNKDEVTMKE
modifications: left off: small tags and cut ends
notes: secreted cleaved form of FNDC5; recombinant human/mouse irisin with C-terminal his tag produced in HEK293 cells
phosphorylation of FAK upon irisin treatment (integrin α11/β1): little phosphorylation of FAK above background | phosphorylation of AKT on threonine 308 (MLO-Y4 cells; MLO-Y4, 10 nM irisin): phosphorylated on threonine 308 | phosphorylation of AKT serine at amino acid 473 (MLO-Y4 cells; MLO-Y4, 10 nM irisin): not induced | time after which CREB was phosphorylated (MLO-Y4 cells; MLO-Y4, 10 nM irisin): 5 min | time to phosphorylation of FAK (MLO-Y4 cells; MLO-Y4, 10 nM irisin): 1 min | phosphorylation of Zyxin (MLO-Y4 cells; MLO-Y4, irisin dose response, 10 minutes): phosphorylated potently | irisin dose as low as which induced phosphorylation of FAK (MLO-Y4 cells; MLO-Y4, serum free medium 4 hours, irisin 10 minutes): 10 pM
